Laboratory results taken from article PMC11931385, “Structural and functional analysis of cancer-associated missense variants in the retinoblastoma protein pocket domain” (The Journal of Biological Chemistry, 2025).
No end group written: not given here. TMR = tetramethyl rhodamine dye

T1: Rb^P T738I (human, UniProt P06400 380-788, T738I)
T1 construct: also called variant 67
T1 sequence (looked up): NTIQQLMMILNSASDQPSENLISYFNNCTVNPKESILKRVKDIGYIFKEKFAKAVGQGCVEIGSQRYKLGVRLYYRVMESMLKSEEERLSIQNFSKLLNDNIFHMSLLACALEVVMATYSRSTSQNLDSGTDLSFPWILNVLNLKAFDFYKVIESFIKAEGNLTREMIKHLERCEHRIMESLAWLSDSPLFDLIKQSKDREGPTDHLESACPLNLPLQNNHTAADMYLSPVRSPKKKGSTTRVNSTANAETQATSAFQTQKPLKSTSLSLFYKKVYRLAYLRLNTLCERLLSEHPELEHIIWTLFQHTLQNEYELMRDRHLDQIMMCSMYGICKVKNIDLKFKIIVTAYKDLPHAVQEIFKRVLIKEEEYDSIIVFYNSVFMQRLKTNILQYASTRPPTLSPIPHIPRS

T2: Rb^P S751Y (human, UniProt P06400 380-788, S751Y)
T2 construct: also called variant 72
T2 sequence (looked up): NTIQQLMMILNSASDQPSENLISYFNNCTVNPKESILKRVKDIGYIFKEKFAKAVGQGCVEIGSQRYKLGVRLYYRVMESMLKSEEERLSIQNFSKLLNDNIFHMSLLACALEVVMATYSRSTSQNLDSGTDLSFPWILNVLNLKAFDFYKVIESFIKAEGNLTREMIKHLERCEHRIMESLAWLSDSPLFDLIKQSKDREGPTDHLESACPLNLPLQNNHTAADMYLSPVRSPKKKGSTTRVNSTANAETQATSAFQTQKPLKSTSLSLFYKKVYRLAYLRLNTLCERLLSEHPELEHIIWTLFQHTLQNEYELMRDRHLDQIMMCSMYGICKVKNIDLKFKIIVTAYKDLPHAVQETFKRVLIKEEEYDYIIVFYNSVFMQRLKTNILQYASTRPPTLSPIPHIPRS

T3: Rb^P S648T (human, UniProt P06400 380-788, S648T)
T3 construct: also called variant 46
T3 sequence (looked up): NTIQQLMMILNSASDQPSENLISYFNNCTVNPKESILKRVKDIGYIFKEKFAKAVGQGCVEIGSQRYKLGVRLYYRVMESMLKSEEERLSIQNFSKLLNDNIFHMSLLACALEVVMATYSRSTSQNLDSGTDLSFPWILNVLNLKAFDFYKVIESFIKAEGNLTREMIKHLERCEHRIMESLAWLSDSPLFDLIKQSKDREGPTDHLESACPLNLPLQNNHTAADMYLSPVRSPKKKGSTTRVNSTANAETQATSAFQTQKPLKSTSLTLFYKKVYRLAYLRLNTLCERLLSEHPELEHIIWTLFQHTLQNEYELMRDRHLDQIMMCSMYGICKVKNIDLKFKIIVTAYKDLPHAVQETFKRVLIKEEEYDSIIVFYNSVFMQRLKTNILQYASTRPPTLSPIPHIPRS

T4: Rb^P E492Q (human, UniProt P06400 380-788, E492Q)
T4 construct: also called variant 18
T4 sequence (looked up): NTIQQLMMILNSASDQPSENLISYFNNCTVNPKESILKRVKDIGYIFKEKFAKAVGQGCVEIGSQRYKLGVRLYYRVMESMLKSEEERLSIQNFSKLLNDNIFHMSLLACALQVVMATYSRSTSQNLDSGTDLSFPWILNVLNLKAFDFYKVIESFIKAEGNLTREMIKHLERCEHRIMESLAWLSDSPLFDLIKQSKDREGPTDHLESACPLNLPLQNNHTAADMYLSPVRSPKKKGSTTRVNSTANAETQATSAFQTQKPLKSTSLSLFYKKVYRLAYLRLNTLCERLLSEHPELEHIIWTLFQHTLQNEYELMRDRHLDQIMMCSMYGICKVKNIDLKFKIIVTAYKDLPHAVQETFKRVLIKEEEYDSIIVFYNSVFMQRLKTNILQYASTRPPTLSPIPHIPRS

T5: Rb^P R621P (human, UniProt P06400 380-788, R621P)
T5 construct: also called variant 43
T5 sequence (looked up): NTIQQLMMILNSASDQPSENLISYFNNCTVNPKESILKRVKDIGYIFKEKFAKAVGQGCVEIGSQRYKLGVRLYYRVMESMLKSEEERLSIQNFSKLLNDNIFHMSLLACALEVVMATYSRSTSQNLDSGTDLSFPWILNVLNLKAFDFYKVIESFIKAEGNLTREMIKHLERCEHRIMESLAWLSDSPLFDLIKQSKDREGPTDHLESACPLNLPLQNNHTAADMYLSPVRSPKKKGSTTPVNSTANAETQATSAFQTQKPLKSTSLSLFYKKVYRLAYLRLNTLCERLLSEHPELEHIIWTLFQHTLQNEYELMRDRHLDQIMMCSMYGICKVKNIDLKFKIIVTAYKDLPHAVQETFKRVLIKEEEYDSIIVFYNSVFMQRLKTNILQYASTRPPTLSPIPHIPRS


Key:
Assay in all cases: fluorescence polarisation; 25 °C; unlabeled Rb^P titrated against 1.5 nM TMR-E2F1^TD or 7.5 nM TMR-E7^LxCxE; 25 mM Tris pH 8.0, 200 mM NaCl, 1 mM DTT, 0.1% Tween-20; 2 min incubation; quadratic fit; apparent Kd for the variants, Kd for WT
Settings in all cases: both partners purified
[1] = target: T1, Rb^P T738I
[2] = target: T2, Rb^P S751Y
[3] = target: T3, Rb^P S648T
[4] = target: T4, Rb^P E492Q
[5] = target: T5, Rb^P R621P

Row | Binder | Kd [1] [nM] | Kd [2] [nM] | Kd [3] [nM] | Kd [4] [nM] | Kd [5] [nM]
1 | {TMR}-GEGIRDLFDCDFGDLTPLD (also called E2F^TD; source: synthetic peptide, bought: GenScript) [TMR-E2F1^TD, peptide of the E2F1 transactivation domain] | 60 | 33 | 33 | 22 | 40
2 | DLYCYEQLN (also: TMR label, position not given here, source: synthetic peptide, bought: GenScript) [TMR-E7^LxCxE, LxCxE peptide of the E7 oncoprotein from HPV] | 18 | 127 | 6 | 14 | 12
